Measured values reported in patent publication US8796183B2, “Template fixed beta-hairpin loop mimetics and their use in phage display” (Polyphor Ltd., priority 2003, dated 2014).
Positions of bridges follow the written chain, without caps; N, C: chain ends. No end group written: not given here.

Assay: Circular dichroism
Type: physicochemical
Details: linear precursor of the compound (before disulfide bridge formation), 10^−4 M in water as TFA salt, room temperature (FIG. 7)
Source text: Circular dichroism measurements are sensitive to the secondary structure of both peptides and proteins and have been extensively used to examine the conformation of both (M. Jourdan, S. R. Griffiths-Jones, M. S. Searle, Eur. J. Biochem. 2000, 267, 3539-3548; J. T. Pelto, L. R. Mc. Lean, Analytical Biochemistry, 2000, 277, 167-176).
Circular Dichroism spectra were obtained on a Jasco J-715 spectropolarimeter, equipped with a spectra manager for windows 95/NT. Version 1.52.01 [Build2]. All measurements were performed at room temperature in quartz cells of 0.1 cm path length in water. Spectra were recorded with a 1 nm bandwidth, five scans were collected to improve the signal-to-noise ratio and the solvent baseline was recorded and subtracted from the spectra of the samples. All CD spectra were smoothed (with the same value), and are reported as molecular ellipticity units (Mol. Ellip.) of peptide residue.
Measurement parameters: Band width: 1.0 nm, response: 1 s, sensitivity: standard, measurement range: 240-190 nm, data pitch: 0.5 nm, scanning speed: 50 nm/min. Concentration of the linear deprotected, purified peptide solutions: 10^−4 M in water as TFA salts. The pH and purity of the linear deprotected, purified peptides as precursors of the following examples were: Example 3: pH 6.38, purity 91%; Example 4: pH 6.77, purity 89%; Example 5: pH 6.01, purity 98%; Example 9: pH 6.00, purity 94%.

Substance | CD-spectrum: secondary structure content
Example 3: Ac-NH-Cys-Thr-Lys-Trp-Phe-Ser-Asn-His-Tyr-Gln-Thr-Cys-H, cysteines linked by a disulfide bridge; reference not having a template (Ac-CTKWFSNHYQTC; disulfide 1-12 (inferred); also: C-terminus written as -H) | mixture of a coil structure and a β-sheet structure
Example 4: Ac-NH-Glu-Thr-Cys-Thr-Lys-Trp-Phe-Ser-Asn-His-Tyr-Gln-Thr-Cys-Thr-Lys-H, cysteines linked by a disulfide bridge (Ac-ETCTKWFSNHYQTCTK; disulfide 3-14 (inferred); also: C-terminus written as -H) | high content of a β-sheet structure
Example 5: Ac-NH-Cys-Thr-Lys-Trp-Phe-Leu-Ala-His-Tyr-Ala-Thr-Cys-H, cysteines linked by a disulfide bridge; reference not having a template (Ac-CTKWFLAHYATC; disulfide 1-12 (inferred); also: C-terminus written as -H) | high content of coil- and α-helix structure and traces of a β-sheet structure
Example 9: Ac-NH-Glu-Thr-Cys-Thr-Lys-Trp-Phe-Leu-Ala-His-Tyr-Ala-Thr-Cys-Thr-Lys-H, cysteines linked by a disulfide bridge (Ac-ETCTKWFLAHYATCTK; disulfide 3-14 (inferred); also: C-terminus written as -H) | high content of β-sheet structure and a β-turn structure
